# T1: biotinylated HER3 domain 4 with N-terminal AviTag and His6 tag (Homo sapiens, biotin (in vitro biotinylation of the AviTag))
# T1 construct: also called biotinylated HER3d4; HER3d4; source: Sf9 (baculovirus), secreted, purified (IMAC, in vitro biotinylation, Superdex 75 SEC); not shown: AviTag, N-terminal, kept
# T1 chain: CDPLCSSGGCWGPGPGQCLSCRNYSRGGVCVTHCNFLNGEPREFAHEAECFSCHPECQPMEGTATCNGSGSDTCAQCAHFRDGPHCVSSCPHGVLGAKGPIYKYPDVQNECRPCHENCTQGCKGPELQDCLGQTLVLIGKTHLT
# T2: HER3 extracellular domain 4 (HER3d4) without AviTag, deglycosylated (Homo sapiens)
# T2 construct: PNGase F treatment may have turned glycosylated Asn into Asp (surmise); also called HER3 domain 4; ErbB3 domain 4; source: Sf9 (baculovirus), secreted, purified (IMAC), deglycosylated with PNGase F, ConA Sepharose
# T2 chain: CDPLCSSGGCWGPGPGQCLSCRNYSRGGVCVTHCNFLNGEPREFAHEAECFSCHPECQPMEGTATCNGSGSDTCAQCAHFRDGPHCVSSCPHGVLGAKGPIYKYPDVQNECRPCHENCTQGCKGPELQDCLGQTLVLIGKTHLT
# T3: HER3 extracellular domain 4, biotinylated (N-terminal AviTag and His6 tag) (human, biotin (in vitro biotinylation, AviTag))
# T3 construct: HER3 (ErbB3) extracellular domain 4, human, residues 500-643 of UniProt entry P21860; also called HER3d4; HER3 domain 4; source: Sf9 insect cells (baculovirus), secreted, purified (IMAC, Superdex 75), biotinylated in vitro; not shown: AviTag, N-terminal, kept
# T3 chain: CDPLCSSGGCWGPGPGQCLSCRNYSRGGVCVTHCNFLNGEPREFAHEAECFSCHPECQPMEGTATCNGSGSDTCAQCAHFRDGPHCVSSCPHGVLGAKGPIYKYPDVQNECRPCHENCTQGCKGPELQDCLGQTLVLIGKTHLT
# Molecular target: biotinylated HER3 domain 4 with N-terminal AviTag and His6 tag (Homo sapiens)
# Assay: SPR; ProteOn XPR36, biotinylated HER3d4 on a NeutrAvidin NLC chip; monomeric DARPins injected at 2.5, 7.5, 22, 67 and 200 nM, 60 ul/min; PBS with 0.005% Tween-20; kinetic titration model
# Settings: not given
row,Kd,Binder
1,8.1 nM,"DARPin D3 (designed binder, N2C DARPin selected by ribosome display; source: E. coli XL1 Blue, purified (HisPur Cobalt Spin Plates)) GSDLGKKLLEAARAGQDDEVRILMANGADVNAFDHSGSTPLHLAAAIGHLEIVEVLLKYGADVNAEDNWGNTPLHQAAWVGHREIVEVLLKYGADVNAQDKFGKTAFDISIDNGNEDLAEILQKLN"
2,4.5 nM,"DARPin D6 (designed binder, N3C DARPin selected by ribosome display; source: E. coli XL1 Blue, purified (HisPur Cobalt Spin Plates)) GSDLGKKLLEAARAGQDDEVRILMANGADVNAQDVSGQTPLHLAAIWGHLEIVEVLLKTGADVNAWDHWGNTPLHLAAWQGHLEIVEVLLKAGTDVNAKDSEGFTPLHLAAWWGHLEIVEVLLKHGADVNAQDKFGKTPFDLAIDNGNEDIAEVLQKAAKLN"

# Molecular target: T1, biotinylated HER3 domain 4 with …
# Assay: as above
# Settings: both partners purified
row,binding result,Binder
1,binds,"DARPin D5 from the pQiq_FLAG expression vector (N-terminal His6 tag, C-terminal FLAG tag) (designed binder, DARPin D5 itself, as printed within the crystallisation construct (from Asp13); source: E. coli XL1 Blue, purified (HisPur Cobalt Spin Plates)) DLGKKLLEAARAGQDDEVRILMANGADVNAFDHNGSTPLHLAAAIGHLEIVEVLLKYGADVNAEDNWGNTPLHQAAWVGHLEIVEVLLKNGADVNAQDKFGKTAFDISIDNGNEDLAEILQKLN"

# Molecular target: T2, HER3 extracellular domain 4 (HER3d4) …
# Assay: crystal structure; DARPin D5 incubated with HER3d4 at a 1:1.2 molar ratio, complex purified by gel filtration in PBS; sitting drop, 277 K; two crystal forms, P2(1) at 2.3 A and P2(1)2(1)2(1) at 2.0 A
# Settings: both partners purified
row,binding result,Binder
1,binds,"DARPin D5 (designed ankyrin-repeat protein D5), His6 tag removed by 3C protease (designed binder, N2C DARPin selected by ribosome display; Carries the framework mutation L86Q against the DARPin consensus; source: E. coli XL1 Blue, purified (Ni-NTA, 3C protease cleavage, reverse Ni-NTA); not shown: His6, N-terminal, cleaved) GPGSDLGKKLLEAARAGQDDEVRILMANGADVNAFDHNGSTPLHLAAAIGHLEIVEVLLKYGADVNAEDNWGNTPLHQAAWVGHLEIVEVLLKNGADVNAQDKFGKTAFDISIDNGNEDLAEILQKLN"

# Molecular target: T3, HER3 extracellular domain 4, …
# Assay: SPR; ProteOn XPR36, NeutrAvidin NLC chip; biotinylated HER3d4 immobilised; monomeric DARPins injected at 2.5, 7.5, 22, 67 and 200 nM (duplicates), 60 µl/min, 5 min association, 5 min dissociation; PBS with 0.005% Tween-20; kinetic titration model
# Settings: both partners purified
Kd,koff,kon,Binder
7.6 nM,0.00932 s⁻¹,1.23e+06 M⁻¹ s⁻¹,"DARPin D1 (designed binder, N2C DARPin selected by ribosome display; source: E. coli XL1 Blue, purified (HisPur Cobalt Spin Plates)) GSDLGKKLLEAARAGQDDEVRILMTNGADVNAFDHNGSTPLHLAAAIGHLEIVEVLLKYGADVNAEDNWGNTPLHQAAWVGHREIVEVLLKYGVDVNAQDKFGKTAFDISIDNGNEDLAEILQKLN"
–,0.0109 s⁻¹,1.35e+06 M⁻¹ s⁻¹,"DARPin D3 (designed binder, N2C DARPin selected by ribosome display; source: E. coli XL1 Blue, purified (HisPur Cobalt Spin Plates)) GSDLGKKLLEAARAGQDDEVRILMANGADVNAFDHSGSTPLHLAAAIGHLEIVEVLLKYGADVNAEDNWGNTPLHQAAWVGHREIVEVLLKYGADVNAQDKFGKTAFDISIDNGNEDLAEILQKLN"
6.9 nM,0.00856 s⁻¹,1.25e+06 M⁻¹ s⁻¹,"DARPin D5 (His6- and FLAG-tagged form used for characterisation) (designed binder, N2C DARPin selected by ribosome display; source: E. coli XL1 Blue, purified (HisPur Cobalt Spin Plates)) GSDLGKKLLEAARAGQDDEVRILMANGADVNAFDHNGSTPLHLAAAIGHLEIVEVLLKYGADVNAEDNWGNTPLHQAAWVGHLEIVEVLLKNGADVNAQDKFGKTAFDISIDNGNEDLAEILQKLN"
7.5 nM,0.00147 s⁻¹,196000 M⁻¹ s⁻¹,"DARPin D7 (designed binder, N3C DARPin selected by ribosome display; source: E. coli XL1 Blue, purified (HisPur Cobalt Spin Plates)) GSDLGKKLLEATRAGQDDEVRILMANGADVNAQDVSGQTPLHLAAIWGHLEIVEVLLKTGADVNAQDWFGETPLHLAAVQGHLEIVEVLLKTGADVNAWDAYGHTPLHLAANYGHLEIVEVLLKHGADVNAQDKFGKTPFDLAIDNGNEDIAEVLQKAAKLN"

# Continued, binder first:
Binder,Kd,koff,kon
"DARPin D4 (designed binder, N2C DARPin selected by ribosome display; source: E. coli XL1 Blue, purified (HisPur Cobalt Spin Plates)) GSDLGKKLLEAARAGQDDEVRILMANGADVNAFDHNGSTPLHLAAAIGHLEIVEVLLKYGADVNAEDNWGNTPLHQAAWVGHREIVEVLLKYGADVNAQDKFGKTAFDISIDNGNEDLAEILQKLN",4.4 nM,0.00669 s⁻¹,1.51e+06 M⁻¹ s⁻¹
"DARPin D2 (designed binder, N2C DARPin selected by ribosome display; source: E. coli XL1 Blue, purified (HisPur Cobalt Spin Plates)) GSDLGKKLLEAARAGQDDEVRVLMANGADVNAFDHNGSTPLHLAAAIGHLEIVEVLLKYGADVNAEDNWGNTPLHQAAWVGHREIVEVLLKYGADVNAQDKFGKTAFDISIDNGNEDLAEILQKLN",5.7 nM,0.00783 s⁻¹,1.37e+06 M⁻¹ s⁻¹
"DARPin D6 (designed binder, N3C DARPin selected by ribosome display; source: E. coli XL1 Blue, purified (HisPur Cobalt Spin Plates)) GSDLGKKLLEAARAGQDDEVRILMANGADVNAQDVSGQTPLHLAAIWGHLEIVEVLLKTGADVNAWDHWGNTPLHLAAWQGHLEIVEVLLKAGTDVNAKDSEGFTPLHLAAWWGHLEIVEVLLKHGADVNAQDKFGKTPFDLAIDNGNEDIAEVLQKAAKLN",–,0.000623 s⁻¹,138000 M⁻¹ s⁻¹
"DARPin D8 (designed binder, N3C DARPin selected by ribosome display; source: E. coli XL1 Blue, purified (HisPur Cobalt Spin Plates)) GSDLGKKLLEAARAGQDDEVRILMANGADVNAQDVSGQTPLHLAAIWGHLEIVEVLLKTGADVNAWDHWGNTPLHLAAWQGHLEIVEVLLKAGADVNAKDSEGFTPLHLAAWWGHLEIVEVLLKHGADVNAQDKFGKTPFDLAIDNGNEDIAEVLQKAAKLN",5 nM,0.000791 s⁻¹,158000 M⁻¹ s⁻¹

# Source: PMC8248824 (Acta Crystallographica. Section F, Structural Biology …, 2021)
